The results in this text go back to patent US20090148447A1 (TRUBION PHARMACEUTICALS, published 2009).

Assay [1] concerns the target low-affinity CD16 (CD16lo). The assay can be described thus: flow cytometry, CD16lo bound to sample on Ramos cells, goat anti-mouse-PE; sample 0.1 ug/ml. (In flow cytometry, cells or beads pass a laser one at a time.)
Assay [2] concerns the target low-affinity CD16 (CD16lo). The assay can be described thus: flow cytometry, CD16lo bound to sample on Ramos cells, goat anti-mouse-PE; sample 0.011 ug/ml.
The target in assay [3] is low-affinity CD16 (CD16lo). The assay can be described thus: flow cytometry, CD16lo bound to sample on Ramos cells, goat anti-mouse-PE; sample 0.033 ug/ml.
The target of assay [4] is low-affinity CD16 (CD16lo). The assay can be described thus: flow cytometry, CD16lo bound to sample on Ramos cells, goat anti-mouse-PE; sample 0.3 ug/ml.
Assay [5] addresses low-affinity CD16 (CD16lo). The assay can be described thus: flow cytometry, CD16lo bound to sample on Ramos cells, goat anti-mouse-PE; sample 24 ug/ml.
Assay [6] deals with low-affinity CD16 (CD16lo). The assay can be described thus: flow cytometry, CD16lo bound to sample on Ramos cells, goat anti-mouse-PE; sample 2.67 ug/ml.
The target in assay [7] is low-affinity CD16 (CD16lo). The assay can be described thus: flow cytometry, CD16lo bound to sample on Ramos cells, goat anti-mouse-PE; sample 8 ug/ml.
For assay [8], the target named is low-affinity CD16 (CD16lo). The assay can be described thus: flow cytometry, CD16lo bound to sample on Ramos cells, goat anti-mouse-PE; sample 0.89 ug/ml.
The target in assay [9] is T1, CD20 (UniProt P11836 1-297, limits assumed).
T1 construct: whole, on cells; also called CD20 on Wil2-S cells
T1 sequence (looked up): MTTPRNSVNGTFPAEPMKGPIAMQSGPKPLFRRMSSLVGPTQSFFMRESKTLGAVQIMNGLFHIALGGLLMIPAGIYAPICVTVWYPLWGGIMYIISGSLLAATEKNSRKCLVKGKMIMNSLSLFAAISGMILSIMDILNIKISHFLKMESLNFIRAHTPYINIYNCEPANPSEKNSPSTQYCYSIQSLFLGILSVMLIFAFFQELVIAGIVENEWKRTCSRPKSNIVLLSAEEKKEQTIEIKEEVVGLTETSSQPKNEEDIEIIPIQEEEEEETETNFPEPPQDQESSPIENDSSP
In words: flow cytometry on Wil2-S B-cells, PE goat anti-human IgG. The procedure:
For the Wil2-S B-cell binding study, 100 ug/ml of PIMS was used. […] Binding was detected using a goat anti-human IgG (gamma specific) conjugated to phycoerythrin (PE) (Jackson Immunoresearch # 109-116-098) at 1:100 dilution in FACS buffer. Results were analyzed by one-color flow cytometry on a FACsCalibur using CellQuest software. In addition to assessing the binding of anti-CD20 PIMS to WIL2-S cells, the binding of anti-CD20 SMIPs to Wil2-S cells expressing CD20 on their surface was also assessed.

low-affinity CD16 (CD16lo), sequence (P08637 17-208): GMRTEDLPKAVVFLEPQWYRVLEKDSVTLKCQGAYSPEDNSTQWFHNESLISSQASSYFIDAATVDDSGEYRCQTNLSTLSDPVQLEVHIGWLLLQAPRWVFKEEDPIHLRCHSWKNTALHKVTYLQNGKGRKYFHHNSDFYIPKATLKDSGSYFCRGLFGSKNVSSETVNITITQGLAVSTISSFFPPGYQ

Turning to TRU-016 (an anti-CD37 SMIP) (Fc fusion), the Geo MFI in assay [1] was found to be 57.5; in assay [2] it was 7.41; in [3], 21.8; in [4], 143; in [5] it was 158; in [6] it was 229. Further, the Geo MFI worked out at 228 in assay [7] and 214 in assay [8].

B1: 2Lm20-4HL17 (an HL anti-CD20 SMIP with a 17-amino-acid gly4ser linker) (Fc fusion)
chain: QVQLVQSGAESKKPGASVKVSCKASGYTFTSYNMHWVRQAPGQGLEWMGAIYPGNGDTSYNQKFKGRVTMTRDTSTSTVYMELSSLRSEDTAVYYCARSYYSNSYWYFDLWGRGTLVTVSSGGGGSGGGGSGGGGSASEIVLTQSPATLSLSPGERATLSCRASSSVSYIVWYQQKPGQAPRLLIYAPSNLASGIPARFSGSGSGTDFTLTISSLEPEDFAVYYCQQWSFNPPTFGQGTKVEIK
notes: also called DNE079; not shown: The hinge and CH2CH3 of this SMIP are not specified
Take B1: in assay [9], the binding result is “binds”.

B2: 2Lm20-4HL12 (an HL anti-CD20 SMIP with a 12-amino-acid gly4ser linker) (Fc fusion)
chain: QVQLVQSGAESKKPGASVKVSCKASGYTFTSYNMHWVRQAPGQGLEWMGAIYPGNGDTSYNQKFKGRVTMTRDTSTSTVYMELSSLRSEDTAVYYCARSYYSNSYWYFDLWGRGTLVTVSSGGGGSGGGGSASEIVLTQSPATLSLSPGERATLSCRASSSVSYIVWYQQKPGQAPRLLIYAPSNLASGIPARFSGSGSGTDFTLTISSLEPEDFAVYYCQQWSFNPPTFGQGTKVEIK
notes: also called DNE078; not shown: The hinge and CH2CH3 of this SMIP are not specified
Regarding B2, the binding result in assay [9] is on record as “binds”.
